The assay addresses HLA-A*24. As to the kind of experiment: UV peptide-exchange ELISA (anti-b2m); yield grade ++ = >20%.

TQFFIPYTI (modifications not checked) [COL10-002] came in with a peptide exchange yield of 20 to 50%.

The record behind these values is patent US20190352359A1.
